Results reported in the supplement of paper PMC10567573.
± gives the standard deviation.

Assay: protein stability index of a GFP-peptide fusion (GPS, HEK-293T) (PSI 1-6); higher = more stable
Conditions: c terminus: a fixed tail appended
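Further: 24-mer peptide tiles fused after GFP, lentivirally expressed, FACS-sorted into six equal bins by GFP/DsRed ratio, decoded by Illumina sequencing, PSI is the read-weighted mean bin number.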

Sequence | protein stability index (treatment: DMSO) | protein stability index (treatment: MLN4924 1 uM, 8 h)
RKTVCHNGVLGLSRLLFFLLGFLR [LPCAT4] | 2.92 ± 0.35 | 3.04 ± 0.38
DLSSESSIKKKFLKRKGKTDSPWI [EHMT1] | 3.42 ± 0.37 | 3.66 ± 0.26
TRWCHIVRDSDSLAESEFESAAFS [PHTF1] | 3.45 ± 0.054 | 3.33 ± 0.29
TDFFKNIMNFIDIVAIIPYFITLG [KCNA1] | 3.22 ± 0.62 | 3.6 ± 0.2
RLDASTSHQNLRVDDLSVEWDAMG [FSD1] | 4.51 ± 0.34 | 4.62 ± 0.34
GDVAIKLKFLEENKIKVMHKQLLL [ARFIP2] | 2.25 ± 0.31 | 2.12 ± 0.26
VDNIDMIDGDGDDMERFMEEMREL [BEX5] | 5.27 ± 0.41 | 5.26 ± 0.21
SYSREHEGRLRYPSRREPPPRRSR [CLK3] | 5.28 ± 0.2 | 5.01 ± 0.48
MEKATVPVAAATAAEGEGSPPAVA [ANKRD17] | 5.67 ± 0.24 | 5.65 ± 0.11
PSRAKPPTEGAGSPAKASQASKLR [FBF1] | 5.16 ± 0.28 | 5.2 ± 0.2
RIYVLGGGTSWTAYSLNKIHAYNL [KLHDC10] | 2.42 ± 0.41 | 2.61 ± 0.67
FFLAILSCSEICYTFIIVPKMLVD [OR10K2] | 3.42 ± 0.36 | 2.89 ± 0.28
NIAIMTEEPELSPAYLISEAMRRS [GFOD1] | 3.5 ± 0.27 | 3.72 ± 0.2
GEQDTWAGEGAEALARNLLVDGET [NFE2L1] | 5.18 ± 0.57 | 5.15 ± 0.46
IKKIEEHAPGVPKILVGNRLHLAF [RAB40A] | 2.39 ± 0.5 | 2.27 ± 0.2
EWAALGNMSKEDAMVEFVKLLNRC [ACBD3] | 2.48 ± 0.22 | 2.59 ± 0.3
TINPSKRITAAEALKHPWISHRST [CAMK2A] | 3.06 ± 0.23 | 3.21 ± 0.2
RAACFDGHLEVVRYLVGEHQADLE [FEM1A] | 3.31 ± 0.27 | 3.39 ± 0.25
GALPVGSNLTSNLASLVSQGMIQL [RETREG3] | 2.21 ± 0.24 | 2.46 ± 0.16
ADTRRLNSKPQDLTDAYGPPSNFL [SNX12] | 3.97 ± 0.22 | 3.93 ± 0.068
KEIDDVIDEIISLESSYNDEMLSY [TFE3] | 3.27 ± 0.26 | 3.5 ± 0.3
NYLAEHCPPLHIPGSMSEVQELCK [TNNI2] | 3.91 ± 0.19 | 3.78 ± 0.11
MIARCLLAVRSLRRVGGSRILLRM [NLN] | 2.35 ± 0.74 | 2.05 ± 0.39

Sequence | protein stability index (treatment: DMSO) | protein stability index (treatment: MLN4924 1 uM, 8 h)
SSDESPGSKCSPEDLATAYNNRGQ [TTC32] | 5.28 ± 0.18 | 5.44 ± 0.12
SSNVSLSLFVLDQNDNAPEILYPA [PCDHGA10] | 2.48 ± 0.13 | 2.38 ± 0.29
RMLEFDPAQRITLAEALLHPFFAG [CLK3] | 2.38 ± 0.25 | 2.39 ± 0.19
DTGVGKSSIVWRFVEDSFDPNINP [RAB22A] | 2.93 ± 0.28 | 3.08 ± 0.29
YQASAMMVESRYALLIVDSATALY [RAD51] | 2.94 ± 0.47 | 2.89 ± 0.41
FGGPFVESSTREVVFPYTSKSCMR [RHOBTB2] | 2.54 ± 0.8 | 2.98 ± 0.75
YYPTSSSTSFMSSSSSSSSWLTRR [EMD] | 3.23 ± 0.19 | 3.29 ± 0.39
FLDIPRSRLVKYPLLLKEILKHTP [NET1] | 1.99 ± 0.55 | 2.34 ± 0.18
ATTASPAKVDSSGVIDLFGDAFGS [SNAP91] | 4.06 ± 0.2 | 4.42 ± 0.15
GGYGGGVSCGFGGGAGSGFGGGYG [KRT13] | 2.23 ± 0.19 | 2.38 ± 0.28
HSFELDEKALASILLQDHIRDLDV [ATL3] | 3.26 ± 0.33 | 3.26 ± 0.29
SESSLEMDDERYFNEMSAQGLRPR [CCDC6] | 4.78 ± 0.2 | 4.85 ± 0.22
HFSQGSALILHQRIHSGEKPYGCV [ZNF24] | 2.24 ± 0.37 | 2.55 ± 0.47
VIVPKEEGVISVSEDRTVRVWLKR [WDFY2] | 2.78 ± 0.32 | 3.17 ± 0.2
PCQKSPNGVRVFPPAMPPPATHLS [TRIM9] | 3.63 ± 0.31 | 3.78 ± 0.15
LIQRKKVHVFGDELSLVTLFRCIQ [TNFSF13B] | 2.25 ± 0.67 | 2.04 ± 0.34
YEHHYHTLHGNVCSFCKRAFPSGH [ZNF511] | 2.73 ± 0.37 | 3.19 ± 0.54
PPDTVSRTGLEKAAAGAVGLERRD [SPDEF] | 5.04 ± 0.15 | 5.29 ± 0.39
IQQLLEPQQYMAFLPHHIMVKIFR [FBXO34] | 2.13 ± 0.31 | 2.53 ± 0.29
YEFQIPYICPDYQSYFKTIEDFQQ [KRT36] | 2.28 ± 0.3 | 2.07 ± 0.3
LSPTQRQKNFELAFTMAENLANCE [SMTNL2] | 3.39 ± 0.19 | 3.67 ± 0.52
PPVRPAGYLLSFHTPGGQNQEILL [TNXB] | 2.38 ± 0.29 | 2.38 ± 0.31
GRHLELANQKLSEKLAAGALPHIN [CCDC3] | 3.46 ± 0.42 | 3.79 ± 0.36

Sequence | protein stability index (treatment: DMSO) | protein stability index (treatment: MLN4924 1 uM, 8 h)
LSSSCCHTVPDFHLSSPAKNFFKK [PLK2] | 2.99 ± 0.18 | 3.25 ± 0.31
KSKSITNLAAAAADIPQDQLVVMH [BTBD10] | 4.43 ± 0.34 | 4.64 ± 0.4
SSNYFSPRESTDFSSSSQEAFAAS [ZBTB22] | 4.41 ± 0.17 | 4.41 ± 0.15
SKTEELNREVATNSELVQSGKSEI [KRT17] | 5.34 ± 0.22 | 5.06 ± 0.1
AAQNCRKRKLDTILNLERDVEDLQ [NFE2L1] | 4.09 ± 0.44 | 4.62 ± 0.27
GKKQEYLENRIQREIALAKKHGTQ [CHMP4C] | 3.92 ± 0.35 | 4.13 ± 0.14
MYLSPPSIHCLGPIKLELLEPKAN [VPS39] | 2.26 ± 0.38 | 2.41 ± 0.39
RLIEVEDMMVMGRKPDPMCVFTYV [SMTNL2] | 2.38 ± 0.37 | 2.59 ± 0.41
REEVRGRELTGLKALYETELADAR [LMNB1] | 4.97 ± 0.2 | 4.83 ± 0.27
KSKAELQSEERKRIDELIESGKEE [KMT5A] | 5.59 ± 0.25 | 5.67 ± 0.21
VTHREGAPPLPGAESFPGSQVMGS [PLEKHN1] | 4.63 ± 0.14 | 4.51 ± 0.11
IFNHERFFWHLTLPERRGTCADRD [CASP6] | 2.6 ± 0.21 | 2.93 ± 0.27
SQRAMLLQGTESLNRATQSIERSH [VTI1B] | 4.27 ± 0.13 | 4.35 ± 0.21
VLEENGEKNQVQLGKLEATIKSLS [SASS6] | 3.98 ± 0.43 | 3.79 ± 0.16
HVMNPLETLSITNCRLSEGDVMHL [PRAME] | 2.54 ± 0.79 | 2.4 ± 0.24
MAAGQNGHEEWVGSAYLFVESSLD [TRADD] | 2.05 ± 0.26 | 2.65 ± 0.37
GGGPGDGGGADTGTGGEEVEALQL [FBXO33] | 5.38 ± 0.16 | 5.32 ± 0.37
KWLDMLNNWDKWMAKKHKKIRLRC [TBC1D10A] | 2.62 ± 0.72 | 2.27 ± 0.31
TPTPVAAALDACSGNDPFAPSEGS [SNAP91] | 5.29 ± 0.32 | 5.47 ± 0.24
RLPGGGWTLRRTKELRKDYQGPGT [DYRK1B] | 3.14 ± 0.26 | 3.43 ± 0.35
QIDQIKRHSNVVILTTSNITEKID [TRIP13] | 3.21 ± 0.28 | 3.4 ± 0.19
TCFVRDGKTYCKRDYVRLFGIKCA [ISL2] | 2.46 ± 0.18 | 2.17 ± 0.19
VMSALWVSGLDSSYLREQMLNEPL [GAN] | 2.83 ± 0.24 | 2.29 ± 0.54

Sequence | protein stability index (treatment: DMSO) | protein stability index (treatment: MLN4924 1 uM, 8 h)
CPQSLPCFEASDCKESSPMPVICG [NANOGP8] | 3.77 ± 0.18 | 3.89 ± 0.083
ALALQARGCSVKIWTAHYDPGHCF [ALG2] | 2.25 ± 0.41 | 2.23 ± 0.26
LTSQNIEIKLVSDVTADSKVLEAL [PLD5] | 3.13 ± 0.31 | 3.18 ± 0.43
SIVTAAKKDILLVNDHLLNFVRER [PDS5B] | 2.25 ± 0.16 | 2.3 ± 0.27
QHLDPQGAQELLEFTIRDLQRLGE [INTS4] | 3.53 ± 0.4 | 3.81 ± 0.46
FLMDLPSAGRSMPEASDQEEHLSP [RNF180] | 4.82 ± 0.21 | 5.08 ± 0.14
WMQANYDPLSDSDSMTSQAKPEAL [ELOA2] | 4.72 ± 0.12 | 4.54 ± 0.26
MSPSMLTRNSPRGCRLPSISSTTC [SPATS1] | 2.97 ± 0.18 | 3.03 ± 0.2
PCSGSVSLQPRRSIAFRLRLASFD [GMCL1] | 2.58 ± 0.39 | 2.24 ± 0.27
PPAALESSDSANTTIEDEDAKARK [CAMK2B] | 5.65 ± 0.15 | 5.7 ± 0.13
PFAPEPTPPTTTAEIATASASAST [SNAP91] | 5.37 ± 0.16 | 5.41 ± 0.14
SLVQLQASHQQQVLPPRQPSALVP [MYBL2] | 3.54 ± 0.23 | 3.63 ± 0.28
MYYRGSAAAIIVYDITKEETFSTL [RAB22A] | 2.75 ± 0.69 | 2.72 ± 0.84
VAARTPAVEGLTEAEEEELRAELT [TPD52L2] | 5.56 ± 0.23 | 5.26 ± 0.26
LNQKGTAVETEGSGSRHPPWARGC [SLC2A12] | 3.98 ± 0.29 | 4.08 ± 0.38
KVTLRIRNVRFSDEGGFTCFFRDH [MOG] | 2.29 ± 0.5 | 2.21 ± 0.14
GGDGDDMEIFMEEMREIRRKLREL [BEX3] | 3.13 ± 0.49 | 2.04 ± 0.4
YCAKLCEPQWFYEETESSDDVEVL [C8orf76] | 2.98 ± 0.67 | 3.6 ± 0.79
SESRKPTVSIMEPGETRRNSYPRA [TRIM29] | 4.79 ± 0.12 | 4.43 ± 0.19
RVVDGTPCSPDSSSVCVQGRCIHA [ADAMTS4] | 4.21 ± 0.35 | 4.39 ± 0.16
